Substitutions are numbered along the chain they refer to. Names may count otherwise.
Substrate: CC(=O)Oc1ccc([N+](=O)[O-])cc1
Assay: purified protein
Type: biochemical, Pseudideonella sakaiensis
Details: 100 mM potassium phosphate pH 7, 25 °C, 1-20 mM 4-NPA, acetonitrile from substrate stock

B1: IsPETase (Pseudideonella sakaiensis; D186H/K252M/K95N/M154G/N212K/N233C/N241C/P181V/Q119K/Q182M/R224L/R280A/R90T/S121E/S207R/S213E/S214Y/S282C/S58A/S61V/T270Q) (protein)
chain: AQTNPYARGPNPTAASLEASAGPFTVRSFTVARPVGYGAGTVYYPTNAGGTVGAIAIVPGYTATQSSINWWGPRLASHGFVVITIDTNSTLDKPESRSSQQMAALRQVASLNGTSSSPIYGKVDTARGGVMGWSMGGGGSLISAANNPSLKAAAVMAPWHSSTNFSSVTVPTLIFACENDRIAPVKEYALPIYDSMSLNAKQFLEICGGSHSCACSGNSNQALIGMKGVAWMKRFMDNDTRYSQFACENPNSTAVCDFRTANCS
notes: expressed in E. coli SHuffle T7 Express; IMAC purified; monomeric by SEC
B1 was tested, and the Km (Hot-PETase) was 9.61 ± 0.91 mM and the kcat (Hot-PETase) was 33.0 ± 1.5 s⁻¹.

B2: IsPETase (Pseudideonella sakaiensis) (protein)
chain: AQTNPYARGPNPTAASLEASAGPFTVRSFTVSRPSGYGAGTVYYPTNAGGTVGAIAIVPGYTARQSSIKWWGPRLASHGFVVITIDTNSTLDQPSSRSSQQMAALRQVASLNGTSSSPIYGKVDTARMGVMGWSMGGGGSLISAANNPSLKAAAPQAPWDSSTNFSSVTVPTLIFACENDSIAPVNSSALPIYDSMSRNAKQFLEINGGSHSCANSGNSNQALIGKKGVAWMKRFMDNDTRYSTFACENPNSTRVSDFRTANCS
notes: as for B1
With B2 the Km was 8.16 ± 0.66 mM and the kcat was 30.3 ± 1.1 s⁻¹.

B3: IsPETase (Pseudideonella sakaiensis; D186H/N233K/R224Q/R280A/S121E) (protein)
chain: B2 chain with S95E, D160H, R198Q, N207K, R254A
notes: as for B1
For B3, the Km (FAST-PETase) was 11.33 ± 1.11 mM and the kcat (FAST-PETase) was 45.7 ± 2.3 s⁻¹.

Reference: publication PMC11587651, “Increased cytoplasmic expression of PETase enzymes in E. coli” (Microbial Cell Factories, 2024)
